Holding throughout (experiment): library pulldown, LC-MS of supernatant; ratio vs GFP-Nb control (0=captured, 1=not captured)
Assay [1] concerns the target T1, BC2T A6P (human).
T1 construct: position 6 library (BC2TA6X), row P
T1 peptide: Ac-PDRKAPVSHWQQ-NH2
Put shortly:
(§1)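 Unbound peptide left in supernatant after 1 h pulldown in PBS/0.01% CHAPS measured by reversed-phase LC-MS (8–30% eluent B gradient, 20 min).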

Assay [2] addresses T2, BC2T A6Y (human).
T2 construct: position 6 library (BC2TA6X), row Y
T2 peptide: Ac-PDRKAYVSHWQQ-NH2
Summed up:
as §1

The target in assay [3] is T3, BC2T V7S (human).
T3 construct: position 7 library, row S
T3 peptide: Ac-PDRKAASSHWQQ-NH2
Put shortly:
as §1

The target of assay [4] is T4, BC2T P1S (human).
T4 construct: position 1 library, row S
T4 peptide: Ac-SDRKAAVSHWQQ-NH2
Summed up:
as §1

For assay [5], the target named is T5, BC2T V7Y (human).
T5 construct: position 7 library, row Y
T5 peptide: Ac-PDRKAAYSHWQQ-NH2
Put shortly: as §1

Assay [6] deals with T6, BC2T V7C(Abu) (human, also: Abu described as gamma-amino butyric acid).
T6 construct: position 7 library, row C(Abu) / C*
T6 peptide: Ac-PDRKAA[GABA]SHWQQ-NH2
Put shortly: as §1

Assay [7] has as its target T7, BC2T V7D (human).
T7 construct: position 7 library, row D
T7 peptide: Ac-PDRKAADSHWQQ-NH2
Put shortly: as §1

For assay [8], the target named is T8, BC2T V7E (human).
T8 construct: position 7 library, row E
T8 peptide: Ac-PDRKAAESHWQQ-NH2
Put shortly: as §1

For assay [9], the target named is T9, BC2T P1C(Abu) (human, SMILES …).
T9 construct: position 1 library, row C(Abu) / C*
T9 peptide: Ac-[GABA]DRKAAVSHWQQ-NH2
Put shortly:
as §1

Assay [10] has as its target T10, BC2T P1H (human).
T10 construct: position 1 library, row H
T10 peptide: Ac-HDRKAAVSHWQQ-NH2
Summed up:
as §1

In assay [11] the target is T11, BC2T D2F (human).
T11 construct: position 2 library, row F
T11 peptide: Ac-PFRKAAVSHWQQ-NH2
Summed up:
as §1

Assay [12] addresses T12, BC2T D2N (human).
T12 construct: position 2 library, row N
T12 peptide: Ac-PNRKAAVSHWQQ-NH2
Summed up: as §1

Assay [13] has as its target T13, BC2T R3T (human).
T13 construct: position 3 library (BC2TR3X), row T
T13 peptide: Ac-PDTKAAVSHWQQ-NH2
Summed up: as §1

Assay [14] has as its target T14, BC2T R3C(Abu) (human, SMILES …).
T14 construct: position 3 library (BC2TR3X), row C(Abu) / C*
T14 peptide: Ac-PD[GABA]KAAVSHWQQ-NH2
Summed up: as §1

Assay [15] addresses T15, BC2T R3K (human).
T15 construct: position 3 library (BC2TR3X), row K
T15 peptide: Ac-PDKKAAVSHWQQ-NH2
Put shortly:
as §1

In assay [16] the target is T16, BC2T K4Q (human).
T16 construct: position 4 library, row Q
T16 peptide: Ac-PDRQAAVSHWQQ-NH2
Summed up:
as §1

The target of assay [17] is T17, BC2T K4D (human).
T17 construct: position 4 library, row D
T17 peptide: Ac-PDRDAAVSHWQQ-NH2
Summed up: as §1

Assay [18] deals with T18, BC2T A5Q (human).
T18 construct: position 5 library, row Q
T18 peptide: Ac-PDRKQAVSHWQQ-NH2
Summed up:
as §1

The target of assay [19] is T19, BC2T A5H (human).
T19 construct: position 5 library, row H
T19 peptide: Ac-PDRKHAVSHWQQ-NH2
Put shortly:
as §1

Positions count from the first letter of the chain named. Square brackets hold non-standard residues; d marks the D form. GABA = NCCCC(=O)O

B1: BC2 nanobody (BC2-Nb) (VHH)
VHH: QVQLVESGGGLVQPGGSLTLSCTASGFTLDHYDIGWFRQAPGKEREGVSCINNSDDDTYYADSVKGRFTIFMDNAKDTVYLQMNSLKPEDTAIYYCAEARGCKRGRYEYDFWGQGTQVTVSS
notes: immobilised on agarose/sepharose beads in this assay; also called BC2 nanotrap (immobilised form); not shown: C-terminal 6xHis-tag added by pHEN6 vector
Regarding B1, the ratio in assay [1] was 1.1; in assay [2], 1; in assay [3], 0.3; in assay [4], 0.3; in assay [5] it was 0.1; in assay [6], 0.2. In addition, the ratio in assay [7] was found to be 0.5; in [8], 0.4; in assay [9], 0.1; in assay [10] it was 0.3; in [11] it was 0.2; in assay [12], 0.2. Besides, the ratio came out at 0.3 in [13]; 0.5 in [14]; 0.2 in [15]; 0.1 in assay [16]; 1 in assay [17]; 0.2 in [18]. In addition, the ratio in [19] was 0.2.

B2: BC2-NbR106S (VHH)
VHH: B1 VHH with R106S
notes: immobilised on beads in this assay; not shown: C-terminal 6xHis-tag added by pHEN6 vector
For the molecule B2, the ratio in assay [1] is 1; in assay [2], 0.9; in [3] it was 0.4; in assay [4] it was 0.6; in assay [5], 0.3; in assay [6], 0.5. Also, the ratio in assay [7] came out at 0.9; in assay [8], 0.8; in assay [9] it was 0.3; in assay [10], 0.6; in assay [11], 0.3; in assay [12] it was 0.3. For the same molecule, the ratio is 0.8 in assay [13]; 0.9 in assay [14]; 0.5 in assay [15]; 0.4 in assay [16]; 1 in [17]; 0.3 in assay [18]. In assay [19], the ratio is 0.3.

The record behind these values is US20170137467A1 (CHROMOTEK, published 2017).
